Reference: patent US20230374087A1, “METHOD TO IMPROVE PROTEIN QUALITY CONTROL” (The Johns Hopkins University, priority 2020, published 2023)

Experiments:
[1] = system: CHIP pS20; assay: Immunoblot for phospho-S20 CHIP in myocytes; assay type: cell-based, rat; conditions: cardiomyocytes; cGMP or SIL; DT3 1 μM
Protocol: Tissue and cultured cardiomyocytes were lysed in 1× lysis buffer (Cell Signaling Technology), protein concentration was measured by bicinchoninic acid assay (Pierce), and extracts were subjected to SDS-PAGE using Novex Tris-Glycine Gels (4-20% gradient gel, Life Technologies) or Mini-protean TGX Gels (4-20% gradient gel, Bio-Rad), transferred to nitrocellulose membranes, and probed with various primary antibodies (CHIP (#2080S), Hsc70 (#8444S), p-CHIP S20 (Custom antibody, AbMart Inc., Shanghai, China; Project: 25011-1), Myc (#2276S), GAPDH (#2118S), and α-tubulin (#3878S) (Cell Signaling) and ubiquitin antibody (#SAB4503053) from Sigma), and fluorescence-labeled secondary antibodies (Licor, #926-32211, 926-32210, 926-68023, or 926-68022). Gels were imaged (Odyssey, Licor) and band intensity quantified (Odyssey Software 3.1).
Human CHIP peptide fragments containing amino acid residues 13-30 were incubated with cGMP/PKG and assayed by MS. […] Phosphorylation was also observed at neighboring S24 and S26, but only when a S20A CHIP mutant was used (FIG. 2D). This indicates the primary target for PKG on CHIP is at S20. A monoclonal phospho-antibody generated against the S20 site in CHIP was tested in vitro with recombinant PKG1α and CHIP, verifying a consistent phospho-S20-CHIP signal. Use of a CHIP-S20A mutant CHIP confirmed specificity (FIG. 2E).

[2] = system: TTR-V122I; assay: TTR abundance in hiPSC-CMs by western blot; assay type: cell-based, human; conditions: cGMP 100 mM, TTR-V122I 5 μM, 14 days
Protocol: (§1) Human induced pluripotent stem cell derived cardiomyocytes (hiPSC-CMs) were infected with Ad-Chip WT, SE, or SA (10 MOI), in the presence or absence of protein kinase G (PKG) stimulation via cGMP (100 mM) and exposed to media containing TTR-V122I (5 μM) or control for 14 days. Cells were lysed and TTR abundance was determined by western blotting for TTR with a total protein stain used to show equal loading.
as §1, with “Lamp2A knockdown” for “protein kinase G (PKG) stimulation”, “siRNA (siLamp2A, 100 μM)” for “cGMP (100 mM)”, “loading. Knocking down Lamp2A removes the method of protein degradation known as chaperone mediated autophagy (CMA).” for “loading.”

[3] = target: T1, Hsp40-stimulated ATPase activity of Hsc70 (Homo sapiens, UniProt P11142); assay: Chaperone refolding ATPase activity assay; assay type: biochemical; conditions: CHIP 0.5-6 μM, Hsc70 0.5 μM, Hsp40 0.25 μM
T1 construct: His-tag (N); made in house; host or cells: E. coli BL21(DE3)
T1 sequence (P11142 whole entry): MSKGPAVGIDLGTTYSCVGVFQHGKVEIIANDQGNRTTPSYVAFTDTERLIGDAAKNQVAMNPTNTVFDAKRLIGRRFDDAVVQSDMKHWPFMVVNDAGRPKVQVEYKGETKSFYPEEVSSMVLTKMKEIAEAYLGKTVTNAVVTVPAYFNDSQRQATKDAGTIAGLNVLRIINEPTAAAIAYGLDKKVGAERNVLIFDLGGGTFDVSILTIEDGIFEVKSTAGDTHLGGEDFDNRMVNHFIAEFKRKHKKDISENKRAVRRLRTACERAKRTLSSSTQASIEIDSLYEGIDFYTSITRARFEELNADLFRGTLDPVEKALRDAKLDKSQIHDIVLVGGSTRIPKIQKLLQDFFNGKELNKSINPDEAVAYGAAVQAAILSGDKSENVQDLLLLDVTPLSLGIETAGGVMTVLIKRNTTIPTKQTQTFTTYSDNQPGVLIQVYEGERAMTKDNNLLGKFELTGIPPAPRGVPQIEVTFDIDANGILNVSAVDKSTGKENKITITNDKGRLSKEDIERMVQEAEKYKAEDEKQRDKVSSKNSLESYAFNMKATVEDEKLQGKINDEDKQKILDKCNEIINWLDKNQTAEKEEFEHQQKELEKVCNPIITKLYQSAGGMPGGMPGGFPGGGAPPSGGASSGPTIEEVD
Protocol: Human HSP40 (DnaJB1), human CHIP and CHIP point mutants in pET30a with a C-terminal His-tag and hHsc70 (HSPA8) wild type with an N-terminal His-tag in pCOLA-Duet1 were expressed in BL21(DE3) and purified on Ni-NTA (Qiagen). Hsc70 and CHIP proteins were induced and expressed for 22 hours at 18° C. Hsp40 protein was induced and expressed for 5 hours at 25° C. Required stock solutions of proteins were prepared by diluting high concentrated stocks in protein storage buffer into protein storage buffer, 20 mM HEPES (pH7.4), 150 mM NaCl. Hsc70 and Hsp40 were used at a concentration of 0.5 μM and 0.25 μM, respectively, with a gradient of CHIP protein concentrations (0.5-6 μM). Hsp40-stimulated ATPase activity of Hsc70 was measured using fluorescent polarization with the […]® ADP2 FP Assay (BellBrook Labs, 3010-1K) on a Clariostar plate reader (BMG) in 384 well black, non-binding plates (Greiner, 784900). Optimized instrument settings were used: Excitation wavelength. 590 nm; Emission wavelength: 675 nm; Required value: 5%; Target mP: 20; Gain A: 1824; Gain B: 1854; Focal Height: 12.4 mm. Values of μM ADP formed in the reactions were interpolated from an ATP/ADP standard curve run in parallel.

[4] = system: neonatal rat cardiomyocytes (NRCMs)
Protocol: After overnight culture, subsets of NRCMs were infected with adenovirus (AdV) containing a FLAG-tagged PDE5, FLAG control, Myc-tagged CHIP WT or K31A (provided by Dr. Cam Patterson), S20E or S20A (Welgen Inc., Worcester, MA). Forty-eight hours after infection, cells were exposed to either simulated ischemia (SI) or normal conditions. SI involved incubating cells in DMEM containing deoxyglucose (20 mM), NaCl (125 mM), KCl (8 mM), KH2PO4 (1.2 mM), MgSO4 (1.25 mM), CaCl2) (1.2 mM), NaHCO3(6.25 mM), sodium lactate (5 mM), and HEPES (20 mM) with a pH of 6.6. Cells were then placed in an incubator chamber (Billups-Rothenberg) with 95% nitrogen, 4% carbon dioxide, and 1% oxygen. Normoxic controls were incubated in DMEM supplemented with 10% FBS in air composed of 95% carbon dioxide and 5% oxygen. RNA or protein was harvested after 48 hours of SI. Cells were also treated with sildenafil (1 μM) or vehicle, or small interference RNA (siRNA, 100 pM) specific for rat Stub1 (Qiagen, Cat. #: SI01532251) or scrambled control provided 24 hours after plating and transfected with Xfect (Takara) per manufacturer protocol.
Lactate dehydrogenase (LDH) leakage and (3-[4,5-dimethylthiazol-2-yl]-2,5-diphenyltetrazolium bromide) (MTT) were assessed in cultured cardiomyocytes and media after SI from the same culture dish. LDH was assayed by commercial assay (Roche) following manufacturer's protocol, read in 96 well microplates on a Spectramax M5 (Molecular Devices) at 490 nm absorbance. For MTT, cells were washed in phosphate-buffered saline, MTT (Sigma-Aldrich) working solution added to the culture dish, incubated at 37° C., solubilized with acidic isopropanol, transferred to a 96 well plate, and read at 570 nm with background subtraction at 650 nm on a Spectramax M5.

| Molecule | SI-induced cytotoxicity (LDH/MTT ratio) [4] | also measured |
| --- | --- | --- |
| Nc1nc2c(ncn2[C@@H]2O[C@@H]3COP(=O)(O)O[C@H]3[C@H]2O)c(=O)[nH]1 [cGMP, cyclic guanosine monophosphate, reference compound] | – | CHIP pS20 level [1]: CHIP pS20 increased; TTR accumulation with PKG stimulation [2]: reduce TTR accumulation in Chip WT cells but not in Chip SA cells |
| CHIP-K31A: CHIP Lys 31 (K30 in humans) to Ala mutant that abolishes CHIP chaperone interactions (protein, left off: small tags and cut ends) MKGKEEKEGGARLGAGGGSPEKSPSAQELAEQGNRLFVGRKYPEAAACYGRVITRNPLVAVYYTNRALCYLKMQQHEQALADCRRALELDGQSVKAHFFLGQCQLEMESYDEAIANLQRAYSLAKEQRLNFGDDIPSALRIAKKKRWNSIEERRIHQESELHSYLSRLIAAERERELEECQRNHEGDEDDSHVRAQQACIEAKHDKYMADMDELFSQVDEKRKKRDIPDYLCGKISFELMREPCITPSGITYDRKDIEEHLQRVGHFDPVTRSPLTQEQLIPNLAMKEVIDAFISENGWVEDY | – | inhibition of Hsp70 ATPase activity [3]: an effect that was lost |
| S24E: S24E mutant CHIP overexpressed in neonatal myocytes (protein, UniProt Q9WUD1 1-304, looked up, variant S24E) E3 ubiquitin-protein ligase …: MKGKEEKEGGARLGTGGGGSPDKEPSAQELKEQGNRLFVGRKYPEAAACYGRAITRNPLVAVYYTNRALCYLKMQQPEQALADCRRALELDGQSVKAHFFLGQCQLEMESYDEAIANLQRAYSLAKEQRLNFGDDIPSALRIAKKKRWNSIEERRIHQESELHSYLTRLIAAERERELEECQRNHEGHEDDGHIRAQQACIEAKHDKYMADMDELFSQVDEKRKKRDIPDYLCGKISFELMREPCITPSGITYDRKDIEEHLQRVGHFDPVTRSPLTQEQLIPNLAMKEVIDAFISENGWVEDY | no significant impact on the cytotoxic response to SI or SI+SIL | – |
| S24A: S24A mutant CHIP overexpressed in neonatal myocytes (protein, UniProt Q9WUD1 1-304, looked up, variant S24A) E3 ubiquitin-protein ligase …: MKGKEEKEGGARLGTGGGGSPDKAPSAQELKEQGNRLFVGRKYPEAAACYGRAITRNPLVAVYYTNRALCYLKMQQPEQALADCRRALELDGQSVKAHFFLGQCQLEMESYDEAIANLQRAYSLAKEQRLNFGDDIPSALRIAKKKRWNSIEERRIHQESELHSYLTRLIAAERERELEECQRNHEGHEDDGHIRAQQACIEAKHDKYMADMDELFSQVDEKRKKRDIPDYLCGKISFELMREPCITPSGITYDRKDIEEHLQRVGHFDPVTRSPLTQEQLIPNLAMKEVIDAFISENGWVEDY | no significant impact on the cytotoxic response to SI or SI+SIL | – |
| S20E/S24E: S20E/S24E combination mutant CHIP (protein, UniProt Q9WUD1 1-304, looked up, variant S20E S24E) E3 ubiquitin-protein ligase …: MKGKEEKEGGARLGTGGGGEPDKEPSAQELKEQGNRLFVGRKYPEAAACYGRAITRNPLVAVYYTNRALCYLKMQQPEQALADCRRALELDGQSVKAHFFLGQCQLEMESYDEAIANLQRAYSLAKEQRLNFGDDIPSALRIAKKKRWNSIEERRIHQESELHSYLTRLIAAERERELEECQRNHEGHEDDGHIRAQQACIEAKHDKYMADMDELFSQVDEKRKKRDIPDYLCGKISFELMREPCITPSGITYDRKDIEEHLQRVGHFDPVTRSPLTQEQLIPNLAMKEVIDAFISENGWVEDY | very similar to those with S20 mutations alone | – |
| S20A/S24A: S20A/S24A combination mutant CHIP (protein, UniProt Q9WUD1 1-304, looked up, variant S20A S24A) E3 ubiquitin-protein ligase …: MKGKEEKEGGARLGTGGGGAPDKAPSAQELKEQGNRLFVGRKYPEAAACYGRAITRNPLVAVYYTNRALCYLKMQQPEQALADCRRALELDGQSVKAHFFLGQCQLEMESYDEAIANLQRAYSLAKEQRLNFGDDIPSALRIAKKKRWNSIEERRIHQESELHSYLTRLIAAERERELEECQRNHEGHEDDGHIRAQQACIEAKHDKYMADMDELFSQVDEKRKKRDIPDYLCGKISFELMREPCITPSGITYDRKDIEEHLQRVGHFDPVTRSPLTQEQLIPNLAMKEVIDAFISENGWVEDY | very similar to those with S20 mutations alone | – |
